Data from publication PMC2636891, “Two Highly Conserved Cysteine Residues in HPV16 L2 Form an Intramolecular Disulfide Bond and Are Critical for Infectivity in Human Keratinocytes” (PLoS ONE, 2009).
Numbering of substitutions follows the chain as printed. Numbers in names are those of the source.

B1: HPV16 minor capsid protein L2, wild type (natural protein)
chain: MRHKRSAKRTKRASATQLYKTCKQAGTCPPDIIPKVEGKTIAEQILQYGSMGVFFGGLGIGTGSGTGGRTGYIPLGTRPPTATDTLAPVRPPLTVDPVGPSDPSIVSLVEETSFIDAGAPTSVPSIPPDVSGFSITTSTDTTPAILDINNTVTTVTTHNNPTFTDPSVLQPPTPAETGGHFTLSSSTISTHNYEEIPMDTFIVSTNPNTVTSSTPIPGSRPVARLGLYSRTTQQVKVVDPAFVTTPTKLITYDNPAYEGIDVDNTLYFSSNDNSINIAPDPDFLDIVALHRPALTSRRTGIRYSRIGNKQTLRTRSGKSIGAKVHYYYDLSTIDPAEEIELQTITPSTYTTTSHAASPTSINNGLYDIYADDFITDTSTTPVPSVPSTSLSGYIPANTTIPFGGAYNIPLVSGPDIPINITDQAPSLIPIVPGSPQYTIIADAGDFYLHPSYYMLRKRRKRLPYFFSDVSLAA
modifications: intramolecular disulfide bond C22-C28
notes: minor capsid protein L2 of human papillomavirus type 16, expressed from pXULL; AAD33258 is the entry used for the alignment and gi 4927726 the one searched in mass spectrometry; Assembled with L1 into virions; also called wild type L2; source: 293TT, transfected with pXULL (L1 and L2 expression plasmid), in virions purified by CsCl density gradient
B2: HPV16 L2 C22S (natural protein)
chain: B1 chain with C22S
notes: minor capsid protein L2 of human papillomavirus type 16 with C22S, expressed from a pXULL variant made by site directed mutagenesis; Assembled with L1 into virions; also called single C22S mutant; source: 293TT, transfected with mutant pXULL, in virions purified by CsCl density gradient
B3: HPV16 L2 C28S (natural protein)
chain: B1 chain with C28S
notes: minor capsid protein L2 of human papillomavirus type 16 with C28S, expressed from a pXULL variant made by site directed mutagenesis; Assembled with L1 into virions; also called single C28S mutant; source: 293TT, transfected with mutant pXULL, in virions purified by CsCl density gradient
B4: HPV16 L2 C22/28S (natural protein)
chain: B1 chain with C22S, C28S
notes: minor capsid protein L2 of human papillomavirus type 16 with C22S and C28S, expressed from a pXULL variant made by site directed mutagenesis; Assembled with L1 into virions; also called double mutant; source: 293TT, transfected with mutant pXULL, in virions purified by CsCl density gradient

How the values were obtained:
[1] = biological target: T1, HPV16 major capsid protein L1 (human papillomavirus type 16, UniProt P03101 1-505, disulfide-linked to other L1 chains in the virions); test: co-sedimentation; CsCl-purified virions; SDS-PAGE and Coomassie staining-based densitometry; data not shown; conditions: partners not purified
T1 construct: major capsid protein L1 of human papillomavirus type 16, expressed from the capsid expression plasmid pXULL; Assembled with L2 and the HPV16 genome into virions; source: 293TT, transfected with pXULL (L1 and L2 expression plasmid), in virions purified by CsCl density gradient
T1 sequence: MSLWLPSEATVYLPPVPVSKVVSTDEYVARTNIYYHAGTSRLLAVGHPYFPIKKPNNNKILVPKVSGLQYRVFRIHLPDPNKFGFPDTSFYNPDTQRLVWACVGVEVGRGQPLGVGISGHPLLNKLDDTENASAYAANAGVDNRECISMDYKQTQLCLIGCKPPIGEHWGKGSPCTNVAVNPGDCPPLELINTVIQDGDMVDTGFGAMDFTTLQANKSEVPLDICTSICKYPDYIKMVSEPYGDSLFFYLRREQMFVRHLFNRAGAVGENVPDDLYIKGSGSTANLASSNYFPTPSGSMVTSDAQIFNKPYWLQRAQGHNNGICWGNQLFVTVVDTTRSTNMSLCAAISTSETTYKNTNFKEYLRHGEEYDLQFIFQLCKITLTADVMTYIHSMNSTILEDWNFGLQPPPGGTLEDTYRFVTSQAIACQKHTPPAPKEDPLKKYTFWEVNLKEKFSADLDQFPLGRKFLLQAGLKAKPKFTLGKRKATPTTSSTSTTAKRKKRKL

[2] = biological target: the molecule itself; test: non-reducing denaturing SDS-PAGE with immunoblot; purified virions reacted with 2 mM NEM for 1.5 h at room temperature, mixed with non-reducing SDS loading buffer (2% SDS), 7.5% gel, immunoblot for L1 and L2; shows only disulfide-linked species

Binder	molecules L2 per virion [1]	stoichiometry N [2]
B1	~22 molecules L2 per virion	
B2	~22 molecules L2 per virion	2
B3	~22 molecules L2 per virion	2
B4	~22 molecules L2 per virion	
